Experimental data taken from patent publication US20240247072A1 (KEYMED BIOSCIENCES, published 2024).

How the values were obtained:
[1] = target: T1, human CD70, full length, on CHO cells (CHO-human CD70-B07) (human, UniProt P32970 1-193); experiment: flow cytometry, chimeric IgG on CHO-human CD70 cells
T1 construct: whole, on cells; Stably transfected CHO cells; also called CHO-CD70
T1 sequence (looked up): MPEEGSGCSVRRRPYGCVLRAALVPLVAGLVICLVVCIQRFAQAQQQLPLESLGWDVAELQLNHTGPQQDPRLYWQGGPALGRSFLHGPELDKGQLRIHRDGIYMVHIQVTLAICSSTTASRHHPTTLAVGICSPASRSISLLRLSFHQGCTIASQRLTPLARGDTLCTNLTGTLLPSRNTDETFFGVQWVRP
Experimental: (§1) Different cells in logarithmic growth phase were taken, blocked with 3% BSA for 30 minutes, and plated to a 96-well U-plate at 5×10⁴ cells/100 μL. The centrifuge was performed at 1100 rpm for 3 minutes. The supernatant was discarded and the cells were gently tapped to be loosening. 50 μL of gradient diluted antibody was added (antibody concentration: from 30 μg/mL, 3-fold dilution for 5 gradients) per well, and incubated at 4° C. for 1 hour. After incubation, 180 μL of 0.5% BSA was added to each well for washing 3 times. 30 μL/well of secondary antibody AlexaFluro647 anti-human IgG (Jackson Immuno Research, Cat. No: 109-606-170) was added and incubated at 4° C. for 45 minutes. At the end of the incubation, each well was washed 3 times with 180 μL of 0.5% BSA and finally resuspended in 50 μL of PBS for iQue (Intellicyt, USA) assay.

[2] = target: T2, cynomolgus monkey CD70, full length, on CHO cells (CHO-monkey CD70-D01) (cynomolgus monkey, UniProt A0A2K5WTU9 1-190); experiment: flow cytometry, chimeric IgG on CHO-cynomolgus monkey CD70 cells
T2 construct: whole, on cells; Stably transfected CHO cells; also called CHO-cynomolgus monkey CD70
T2 sequence: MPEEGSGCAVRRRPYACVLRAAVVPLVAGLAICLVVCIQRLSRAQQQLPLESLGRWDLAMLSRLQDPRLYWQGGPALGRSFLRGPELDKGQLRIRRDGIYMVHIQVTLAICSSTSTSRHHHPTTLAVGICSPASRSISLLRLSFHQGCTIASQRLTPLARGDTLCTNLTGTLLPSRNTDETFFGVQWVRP
Experimental: as §1

[3] = target: T3, recombinant trimeric protein of human CD70 extracellular region (human CD70 mIgG Fc (knob) / mouse IgG Fc … (human, UniProt P01863 98-330 = IgG part)); experiment: competition ELISA, chimeric IgG titrated, CD27 coated, biotin-CD70, human pair
T3 construct: The ELISA and Octet texts say only 'recombinant CD70 protein' / 'CM352 antigen'; also called recombinant human CD70 protein; recombinant CD70 protein
T3 chain 1: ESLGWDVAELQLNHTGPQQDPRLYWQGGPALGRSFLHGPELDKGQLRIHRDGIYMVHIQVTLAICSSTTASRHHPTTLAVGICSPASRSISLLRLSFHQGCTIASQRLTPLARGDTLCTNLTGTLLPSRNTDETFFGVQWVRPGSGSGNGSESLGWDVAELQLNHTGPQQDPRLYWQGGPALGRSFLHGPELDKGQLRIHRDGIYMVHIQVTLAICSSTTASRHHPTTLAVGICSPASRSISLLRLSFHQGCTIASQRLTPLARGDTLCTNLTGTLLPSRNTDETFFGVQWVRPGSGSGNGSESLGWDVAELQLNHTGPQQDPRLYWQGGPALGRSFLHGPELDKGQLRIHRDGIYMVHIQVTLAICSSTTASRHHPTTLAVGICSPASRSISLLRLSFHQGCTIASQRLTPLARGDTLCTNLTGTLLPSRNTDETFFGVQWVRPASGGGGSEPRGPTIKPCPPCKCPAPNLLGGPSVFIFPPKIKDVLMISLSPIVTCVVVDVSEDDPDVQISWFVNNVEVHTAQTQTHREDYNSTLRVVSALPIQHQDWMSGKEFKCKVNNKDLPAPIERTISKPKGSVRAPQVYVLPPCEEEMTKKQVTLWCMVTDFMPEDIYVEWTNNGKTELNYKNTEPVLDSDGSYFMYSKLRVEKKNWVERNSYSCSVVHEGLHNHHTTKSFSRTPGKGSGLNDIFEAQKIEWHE
T3 chain 2: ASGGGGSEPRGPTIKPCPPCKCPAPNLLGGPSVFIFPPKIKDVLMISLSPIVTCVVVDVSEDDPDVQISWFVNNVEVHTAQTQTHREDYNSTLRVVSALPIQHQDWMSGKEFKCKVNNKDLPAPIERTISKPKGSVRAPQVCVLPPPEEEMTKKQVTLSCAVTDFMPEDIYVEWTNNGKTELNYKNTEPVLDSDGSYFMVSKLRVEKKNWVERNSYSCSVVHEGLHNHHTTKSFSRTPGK
Experimental: (§2) The recombinant CD27 protein was coated at 1 μg/mL in a 96-well microtiter plate and incubated overnight at 4° C. The next day, the plate was washed 3 times with PBS, added with 200 μL of 2% defatted dry milk/PBS, blocked at room temperature for 2 hours, and washed once with PBS. The purified chimeric antibody was divided to 12 concentration gradients starting at 100 nM and diluted in a 1:3 gradient. […] of the antibody was added per well and incubated at room temperature for 30 minutes. […] The plate was washed 3 times with PBST and PBS and dried by spinning. A secondary antibody Streptavidin-coupled horseradish peroxidase SA-HRP (BD bioscience, cat. No: 6222697) was diluted with 0.5% BSA in a ratio of 1:8000. 100 μL of the diluent was added into each well and incubated at room temperature for 30 minutes. The plate was washed 3 times with PBST and PBS and dried by spinning. 100 μl of color development solution (TMB solution, Sigma, Cat. No: T2885) was added into each well and protected from light at 37° C. for reaction. After the substrate developed moderately, 50 μl of H₂SO₄ was added into each well to terminate the reaction. The OD450 nm was determined by using an enzyme-linked detector within 30 minutes, and the data was collected. The results were calculated by using Graph Pad Prism 5 software.

[4] = target: T4, recombinant cynomolgus monkey CD70 protein (cynomolgus monkey, UniProt A0A2K5WTU9 39-190); experiment: competition ELISA, chimeric IgG titrated, CD27 coated, biotin-CD70, cynomolgus pair
T4 construct: it stands only in column heads ('Monkey', 'Cynomolgus Monkey CD70/CD27') and in result sentences; also called Monkey (ELISA)
T4 sequence: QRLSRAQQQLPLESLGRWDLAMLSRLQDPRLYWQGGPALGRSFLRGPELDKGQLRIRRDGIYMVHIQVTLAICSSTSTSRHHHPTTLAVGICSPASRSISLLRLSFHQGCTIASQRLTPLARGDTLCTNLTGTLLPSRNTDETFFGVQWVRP
Experimental: as §2

[5] = target: T3, recombinant trimeric protein of human …; experiment: ELISA binding, hybridoma supernatant, human CD70
[6] = target: T1, human CD70, full length, on CHO cells …; experiment: flow cytometry, hybridoma supernatant, cell surface human CD70

B1: 25H7 chimeric antibody (antibody, V domains shown)
VH: EIQLVQSGPELKKPGETVKISCKASGYTFTNYGMNWVKQTPGKGLKWMGWINTDTGEPTYADDFKGRFAFSLETSASTAYLQINNLKNEDMATYFCAREEDYRYVFNYWGQGTTLTVSS
VL: DIQMTQTTSSLSASLGDRVTISCRASQDISNYLNWYQQKPDGTVKLLIYYTSRLHSGVPSRFSGSGSGTDYSLTISNLEQEDIATYFCQQGVTLPLTFGAGTKLELK
EC50 [1]: 16.1 nM
EC50 [2]: 17.4 nM
IC50 [3]: 0.16 nM
IC50 [4]: 0.15 nM

B2: 26G11 chimeric antibody (antibody, V domains shown)
VH: QVQLQQSGPELVKPGASVKISCKTSGYTFADYTMHWVRQSQGKSLEWIGDIYPNDGGPNNNQKFKDKATLTVDKSSSTAYMELRSLTSEDSAVYYCARPFYYGNYAGFAFWGQGTLVTVSA
VL: EMVLTQSPAIMSASPGEKVTMTCSASSSVSYMYWYQQKPGSSPRLLIYDTSNLASGVPVRFSGSGSGTSYSLTISRMEAEDAATYYCQQWSSYPLTFGAGTRLEIK
EC50 [1]: 22.5 nM
EC50 [2]: 21 nM
IC50 [3]: 0.17 nM
IC50 [4]: 0.21 nM

B3: 10C19-D11 hybridoma antibody (antibody, V domains shown)
VH: QVQLQQSGPGLVQPSQSLSITCTVSGFSLTTYAVHWFRQSPGQGLEWLGVIWSTGITDFNAAFISRLNINKDSSKSQIFFKMISLQPNDTAIYYCGRNSYYGNLYAMDYWGQGTSVTVSS
VL: DIVLTQSPTSLAVSLGQRATISCRASKSVSASGYNFMHWYQQKPGQPPKLLIYLASNLESGVPARFSGSGSETDFTLNIHPVEEGDAATYYCQHSRELPLTFGAGTKLELK
notes: Mouse antibody in hybridoma culture supernatant
binding result [5]: binds
binding result [6]: binds

B4: 16J15-H3 hybridoma antibody (antibody, V domains shown)
VH: QVQLKQSGPGLVQPSQSLSITCTVSNFSLSTYGVHWVRQSPGKGLEWLGVIWGGGYTDYNAAFISRLTISKDNSKSQVFFKMNSLQADDTAIYYCARNNYYGNLYAMDYWGQGTSVTVSS
VL: DIVLTQSPASLPVSLGQRATISCRANKSVSASGYSFMHWYQQKPGQPPKLLIYLASNLDSGVPARFSGSGSGTDFTLNIHPVEEEDTATYYCQHSREFPLTFGAGTKLELK
notes: as for B3
binding result [5]: binds
binding result [6]: binds

B5: 17A9-G5 hybridoma antibody (antibody, V domains shown)
VH: QVQLKQSGPGLVQPSQSLSITCTVSGFSLTTYGVHWVRQSPGKGLEWLGVIWSAGITDYNAPFISRLSITKDNSKSQVFFKMNSLQADDTAIYYCARNDYYGNLYAMDYWGQGTSVTVSS
VL: DIVLTQSPASLAVSLGQRATISCRANKSVSASGYTFMHWYQQKPGQPPKLLIYLVSNLASGVPARFSGSGSGTDFTLNIHPVEGEDAATYYCQHSREFPLTFGAGTKLELK
notes: as for B3
binding result [5]: binds
binding result [6]: binds

B6: 36E7-D6 hybridoma antibody (antibody, V domains shown)
VH: QVQLKQSGPGLVQPSQSLSITCTVSDFSLTIFGVHWVRQSPGKGLEWLGVIWRDGSTDYNAALMSRLNITKDNSKSQVFFKMNSLQTDDTAIYYCAKNRRYDYAWFPYWGQGTLVSVSA
VL: DIVLTQSPASLAVSLGQRATISCRASKSVSASGYSFLHWYQQKPGQPPKLLIYLTSNLESGVPARFSGSGSGTDFTLNIHPVEEEDAATYYCQHSRDFPPTFGAGTKLELK
notes: as for B3
binding result [5]: binds
binding result [6]: binds

B7: 42H19-G4 hybridoma antibody (antibody, V domains shown)
VH: QVQLKQSGPGPVQPSQSLSITCTVSDFSLTIFGIHWVRQSPGKGLEWLGVIWRDGSTDYNVALMSRLNITKDNSKSQVFFKMNSLQTDDTAIYYCAKNRRYDYAWFPYWGQGTLVSVSA
VL: DIVLTQSPASLAVSLGQRATISCRASKSVSASGYSFLHWYQQKPGQPPKLLIYLTSNLESGVPARFSGSGSGTDFTLNIHPVEEEDAATYYCQHSRDFPPTFGAGTKLELK
notes: as for B3
binding result [5]: binds
binding result [6]: binds

B8: 4H6-A6 hybridoma antibody (antibody, V domains shown)
VH: QVQLKQSGPGLVQPSQKLSITCTVSGFSLTTYGVHWIRQSPVKGLEWLGVIWTTGVVDYNAAFISRLNITKDNSKSQIFFKMNSLQTNDTAMYYCARNSYYGNLYVMDYWGQGTSVTVSS
VL: DIVLTQSPASLPIFLGQRATISCRASRSVSASGYTFMHWYQQKPGQPPKLLIYLVSNLESGVPARFSGSGSGTDFTLNIHPVEEEDAATYYCQHSREFPLTFGAGTKLELK
notes: as for B3
binding result [5]: binds
binding result [6]: binds
